Experimental data taken from the DeepSol protein solubility set.

assay: soluble on expression in E. coli; label from the status in PepcDB or PDB records

Row | Sequence | soluble on expression in E. coli
1 | MSKEKYSFEDLIKVMEELRKKCPWDREQTHESLKKYLIEEAYEVLDAIDSKDDEKLKEELGDLLLQVVFHSQIAKERGAFDINDVIDTLVKKLIERHPHVFGCANPEDVLKNWEKKKMEKRKSIFEGIPKHLPALMRSQKLQDRTSQVGFDFQDISQVFEKIQEEINELKESLEKGDRENIKHEIGDILTAVVELARFVNVDAEEALQEANERFIRRFSYIEKKAKEEGRKLEDMSLEEMDKLWMEAKKLEEQGKLS | soluble
2 | MSKFGGATAKVIKGALKVRQTRAALTLTNEAVSRIRVLLAQQNDANALKIGVRQKGCNGLTYTLEYAKDKQKFDEEVEQDGIKVWIEPKAQLSLLGSEMDYVTDKLSSEFVFRNPNIKGTCGCGESFSI | not soluble
3 | MSKKIVLALGGNALGDDLAGQMKAVKITSQAIVDLIAQGHEVIVTHGNGPQVGMINQAFEAAAKTEAHSPMLPMSVCVALSQGYIGYDLQNALREELLSRGINKPVATLVTQVEVDANDPAFLNPTKPIGSFFTEQEAEQLTKQGYTLKEDAGRGYRRVVASPKPVDIIEKETVKALVDAGQVVITVGGGGIPVIREGNHLRGASAVIDKDWASARLAEMIDADMLIILTAVEKVAINFGKENEQWLDRLSLSDAERFIEEGHFAKGSMLPKVEAAASFARSRAGREALITVLSKAKEGIEGKTGTVICQ | not soluble
4 | MSKKLLIKTWGCQMNEYDSSKMADLLNAANGYELTEEPEEADVLLLNTCSIREKAQEKVFHQLGRWKTLKDKKPGVVIGVGGCVATQEGDHIRERAPYVDVIFGPQTLHRLPEMIKQSQTDDAPVMDISFPEIEKFDRLPEPRAEGATAFVSILEHHHHHH | not soluble
5 | MSKKPVALIILDGFALRDETYGNAVAQANKPNFDRYWNEYPHTTLKACGEAVGLPEGQMGNAEVGHLNIGAGRIVYQSLTRINIAIREGEFDRNETFLAAMNHVKQHGTSLHLFGLLSDGGVHSHIHHLYALLRLAAKEGVKRVYIHGFLDGRDVGPQTAPQYIKELQEKIKEYGVGEIATLSGRYYSMDRDKRWDRVEKAYRAMVYGEGPTYRDPLECIEDSYKHGIYDEFVLPSVIVREDGRPVATIQDNDAIIFYNFRPDRAIQISNTFTNEDFREFDRGPKHPKHLFFVCLTHFSETVAGYVAFKPTNLDNTIGEVLSQHGLRQLRIAETEKYPHVTFFMSGGREEEFPGEDRILINSPKVPTYDLKPEMSAYEVTDALLKEIEADKYDAIILNYANPDMVGHSGKLEPTIKAVEAVDECLGKVVDAILAKGGIAIITADHGNADEVLTPDGKPQTAHTTNPVPVIVTKKGIKLRDGGILGDLAPTMLDLLGLPQPKEMTGKSLIVK | soluble
6 | MSKLFSEYKLKDVTLKNRIVMSPMCMYSVENKDGIATDFHFAHYVSRAAGGTGLVILEATAVQEVGRISEFDLGLWNDEQVPALKKLVGGLHYHGAKAGIQLAHAGRKAVLPGEIVAPSAIAFDEKSDKPVELTKEAIKEVVADFKRAAYRAKEAGFDVIEIHAAHGYLIHQFLSPITNRREDNYGGPAGNRYKILSDIIKAVKEVWDGPIIVRVSATDYAHGGLQLEDHIPFAKWMKADGVELIDVSTGGLVNVAPPVFPGYQVPFADEIRRGAGIATGALGLITRGEQAEEILCNERADLIIVGRELLRNPYFAKDAAKQLGETIEAPKQYSRAWK | not soluble
7 | MSKLLLKTPCTTWTFDSLMACVFGIKVSDVKVYFDILKNGPSKINDIAERINRDRSTVQRAVQNLMNAGLVKRKQVNIKDGGYYYVYEAIPFEETKKIIKKTMEEWCNNMKKWVEELEFEDVVKEYLENIEE | not soluble
8 | MSKLQQILTYLESEKLDVAVVSDPVTINYLTGFYSDPHERQMFLFVLADQEPLLFVPALEVERASSTVSFPVVGYVDSENPWQKIKHALPQLDFKRVAVEFDNLILTKYHGLKTVFETAEFDNLTPRIQRMRLIK | soluble
9 | MSKNDTEKILLDDLLFLQRAPYYESFSVYKIDSNKYIENENDSHIDRWLSMAVSGDDKTEAPTEFVIEPGGCLISLVVDRRLISLY | not soluble
10 | MSKNRDPLLANLNAFKSKVKSAPVIAPAKVGQKKTNDTVITIDGNTRKRTASERAQENTLNSAKNPVLVDIKKEAGSNSSNAISLDDDDDDEDFGSSPSKKVRPGSIAAAALQANQTDISKSHDSSKLLWATEYIQKKGKPVLVNELLDYLSMKKDDKVIELLKKLDRIEFDPKKGTFKYLSTYDVHSPSELLKLLRSQVTFKGISCKDLKDGWPQCDETINQLEEDSKILVLRTKKDKTPRYVWYNSGGNLKCIDEEFVKMWENVQLPQFAELPRKLQDLGLKPASVDPATIKRQTKRVEVKKKRQRKGKITNTHMTGILKDYSHRV | soluble
11 | MSKPSTPAPASADQNGDSATRQTAQTTETPASLLSAVGNGAPNMAGFTLNRDMVPFFPYQLQNPMLQPPQNSLENAIVHSLGTLAAQSSMFGQLCEKMLKAQEEARADQRSIREEHRAEREKADERSQQNMDKMMALVHSLVERVDRSHASSYDVVGQKNPSSSSLKPAKRVKSAVVRQSNLAKRTGAPVDAAKELKKIRDEENRNHGRSAERDNVFIGAVLVGKGSQYDKDLEKFKSFRCRTCNEVSQTKEQLVDHFSNNHAGELGARRSLRIKQTSC | not soluble
12 | MSKQDLLLEIGLEEMPARFLNESMVQLGDKLTGWLKEKNITHGEVKLFNTPRRLAVFVKDVAEKQDDIKEEAKGPAKKIALDADGNWTKAAIGFSKGQGANVEDLYIKEVKGIEYVFVQKFQAGQETKSLLPELSGLITSLHFPKNMRWGNEDLRYIRPIKWIVALFGQDVIPFSITNVESGRTTQGHRFLGHEVSIESPSAYEEQLKGQHVIADPSVRKQMIQSQLETMAAENNWSIPVDEDLLDEVNHLVEYPTALYGSFESEFLSIPEEVLVTTMKEHQRYFPVKDKNGDLLPHFITVRNGNSHAIENVARGNEKVLRARLSDASFFYKEDQKLNIDANVKKLENIVFHEELGSLADKVRRVTSIAEKLAVRLQADEDTLKHVKRAAEISKFDLVTHMIYEFPELQGIMGEKYARMLGEDEAVAAAVNEHYMPRSAGGETPSTFTGAVVAMADKLDTIASFFSIGVIPTGSQDPYGLPRQASGIVAILLDRNWGISFEELLTFVQTDKENELLDFFTQRLKYVLNAEQIRHDVIDAVLESSELEPYSALHKAQVLEQKLGAPGFKETAEALGRVISISKKGVRGDIQPDLFENEYEAKLFDAYQTAKENLQENFSKKDYEAALASLAALKEPIDAYFDHTMVIADNESLKANRLAQMVSLADEIKSFANMNALI | not soluble
13 | MSKQENIISHNTDSSLLNTVMQQMKERIINEGDKPHVTVETQLKILQELSQFGFGQFLIKNQGINGYWTHYMLTHPWFGRKTGLNNSREPLSNMECFLLDKAPTMLATQQRFELFLQENQKALVNGATLASIPCGMLGELLYLDFNGINNIQLMGIDYDQAALEDANALAKERNLDRFTTLVCRNAWELNIQEEFDLISSNGLNIYEPDDNKVLDLYQQFHTALKKGGKLVTSFLTPPPHLSSQCEWIFNKINPEDLLLQRIIFSDILNAKFQCYRSSQQTQKQLALAGFKNIHFLYDEAHLFPTVIAEK | not soluble
14 | MSKSALDPVEFLKGALEIPSPSGKERAVAEYLAEGMQKLGLKGFVDEADNARGQVGEGPVQVVLLGHIDTVPGQIPVRLEGGRLFGRGAVDAKGPFVAMIFAAAGLSEEARRRLTVHLVGATEEEAPSSKGARFVAPRLKPHYAVIGEPSGWEGITLGYKGRLLVKARREKDHFHSAHHEPNAAEELISYFVAIKAWAEAMNVGQRPFDQVQYTLRDFRVHPAELRQVAEMFFDLRLPPRLPPEEAIRHLTAYAPPTIELEFFGREVPYQGPKDTPLTRAFRQAIRKAGGRPVFKLKTGTSDMNVLAPHWPVPMVAYGPGDSTLDHTPYEHVEVAEFLKGIEVLRGALEALAQTHAGEKEG | soluble
15 | MSKSGVPRLLTASERERLEPFIDQIHYSPRYADDEYEYRHVMLPKAMLKAIPTDYFNPETGTLRILQEEEWRGLGITQSLGWEMYEVHVPEPHILLFKREKDYQMKSQQRGG | soluble
16 | MSKSWGKFIEEEEAEMASRRNLMIVDGTNLGFRFKHNNSKKPFASSYVSTIQSLAKSYSARTTIVLGDKGKSVFRLEHLPEYAGNRDEKYAQRTEEEKALDEQFFEYLKDAFELCKTTFPTFTIRGVEADDMAAYIVKLIGHLYDHVWLISTDGDWDTLLTDKVSRFSFTTRREYHLRDMYEHHNVDDVEQFISLKAIMGDLGDNIRGVEGIGAKRGYNIIREFGNVLDIIDQLPLPGKQKYIQNLNASEELLFRNLILVDLPTYCVDAIAAVGQDVLDKFTKDILEIAEQ | soluble
17 | MSKTRIAFVGAGNMAASLIGGLRAQGVEASLICASAPGAETRERISTEHGIEVFADNAEAVKGADVVVLAVKPQMMKSVCQALKASLEAHQLIVSVAAGITCASLTQWLGDQPVVRCMPNTPSLLRQGASGLYATDKVSPTQREQAEQLLSAVGVAVWVEQEKHMDAVTAVSGSGPAYFFLMMEAMTAAGVKLGLPEDIAKKLTLQTALGSALIATGSNVDAGELRRRVASPGGTTEAAIKAFQAGGFEALVETALTAADHRAAELAEQLGKLEHHHHHH | not soluble
18 | MSKVIIPKIVGHRGVGKEGLAPENTLRSFVLCMERNIPYIETDLRVCKTGEIVLFHGTPEGTIPFYKDGTSRIGDLSLEELKRLDVGGGHTIPSLEELFVAIEEQKFNLKLNLELKGEEWKRKESGDHQRLLLLVEKYHMQERVDYCSFHHEALAHLKALCPDVKITYLFNYMGQPTPLDFVEQTQKACYGDANGVSMLFHYLTKEQVCTAHEKGLSVTVWMPWIFDDSEEDWKKCLELQVDLICSNYPFGLMNFLSNISE | soluble
19 | MSKYGCPTSDTDPNSVTMITKRGPVNKTLKSAAQLNAAQRAGVDISTEKKTMSGGNRQHSANKNTLRLDEETEELHHQKVALSLGKVMQQARATKGWTQKDLSTQINEKPQVVGEYESGKAVPNQQIMAKMERALGVKLRGKDIGMPFSTKPPAKK | not soluble
20 | MSLAAEKLRLVADPWPPFTDALLLNGGLATDIVNTALKRAGYTTLYEQVPWARALLGLSEGRHDVLINAWFSEDRKKIGQFSAEYLLNRIRFIKRKESPIDALTHEQLHHYLIAVVRGYAYSPAFDSDVLLKKVPVQNFSTAVRMLAAERVDLTLEDEYVARYNLALEANEVRARVEFLPGSLSENSLHILVSLKNPHHAKIVADFDREIAAMKADGTYEELLRLHGLQGPPEEGHHHHHH | soluble
21 | MSLADIYAFPTGESNDGRPVRPQGVPDEVWAAVESVSTMKRIHDVRYREIPVPSTLADYGIGVEFEAGERALGDAFSAGLGSDAEPRIATGWIMMLYAHELRIDWDSNWRCVAFARLPLETAENDSLTPGMYWDDMCDYFDGIEPDSVSGTVTVTQNTAFGSMAGSTSAGCEIRVSWTPLDGTGPDGTMDAGAQVRSWAAFIRSTIRFEEDDASEGHHHHHH | soluble
22 | MSLAEIAYITAKADLPFWDTVGKGVKAVAEANGYAFSELDSKLSAEMQLNNVRQAIDRRVAGIVISPTNSKSAEEALILARRAKIPVAIADIGASGGDYVSFVKSDNYRGAYDVGTELAKAMKAQNWASGAYGMVTIELSRKNGQDRTNGFRDAMKDAGFPREIVLRQMKDYSAEETYRYVKEMLAAHPGLRGFFIETDQPVAGALRAIREAGKEKQLLLVSFDAMPDVVRLLKSGALVAVGMQQPYLMGSSAAGALVSRLRGHPPAKEILVPVLVATGRNVDQLMPVAARTVFGKPLKEGHHHHHH | soluble
23 | MSLAEIRIRPLEVSALSRRLCIWADIVDASGVLLNSAPVWFDVSAMGEVWTPSTDAEKGTAVDVHPLKREFIDVAAAGIEPASRREIEGKEFSRRVESGQPITKDVLRAIPEIKNGDIVFVEVRVGTVFLRSRAEAMHDAYIGDRIKLKSVSSGETMLGVVLSAGRVWIGSEGHHHHHH | not soluble
